Data on two molecules can be found in US20220195028A1 (Janssen / Centocor, published 2022).

The target of assay [1] is T1, recombinant human TNFα (human, UniProt P01375 77-233). Kind of assay: cell-based or functional assay.
Assay [2] concerns the target T1, recombinant human TNFα. Kind of assay: 125I-TNFα binding to plate-coated p55-sf2 in presence of varying amounts of mAb in hybridoma supernatant. Here is the method:
(§1) 50:l of p55-sf2 at 0.5:g/ml in PBS was added to Optiplates to coat the wells during a one-hour incubation at 37° C. Serial dilutions of the eight TNV cell supernatants were prepared in 96-well round-bottom plates using PBS/0.1% BSA as diluent. […] The mixture was preincubated for one hour at RT. The coated Optiplates were washed to remove unbound p55-sf2 and 50:l of the ¹²⁵I-TNFα/cell supernatant mixture was transferred to the Optiplates. After 2 hrs at RT, Optiplates were washed three times with PBS-Tween. 100:l of Microscint-20 was added and the cpm bound determined using the TopCount gamma counter.
A simple binding assay was done to determine whether the eight TNV mAbs contained in hybridoma cell supernatant were capable of blocking TNFα binding to receptor. The concentrations of the TNV mAbs in their respective cell supernatants were first determined by standard ELISA analysis for human IgG.

In assay [3] the target is T1, recombinant human TNFα. Kind of assay: competition radioligand assay: mAb in hybridoma supernatant preincubated with 5 ng/ml 125I-TNFα, then binding of TNFα to plate-coated p55-sf2 counted as cpm bound. As to the method:
Varying amounts of hybridoma cell supernatants containing known amounts of TNV mAb were preincubated with a fixed concentration (5 ng/ml) of ¹²⁵I-labeled TNFα. […] The amount of TNFα that bound to the p55 receptor in the presence of the mAbs was determined after washing away the unbound material and counting using a gamma counter. Although eight TNV mAb samples were tested in these experiments, for simplicity three of the mAbs that were shown by DNA sequence analyses to be identical to one of the other TNV mAbs (see Section 5.2.2) are not shown here. Each sample was tested in duplicate. The results shown are representative of two independent experiments.
as §1

B1: TNV148 (antibody, human IgG1, V domains shown)
VH: QVQLVESGGGVVQPGRSLRLSCAASGFIFSSYAMHWVRQAPGNGLEWVAFMSYDGSNKKYADSVKGRFTISRDNPKNTLYLQMNSLRAEDTAVYYCARDRGIAAGGNYYYYGMDVWGQGTTVTVSS
VL: EIVLTQSPATLSLSPGERATLSCRASQSVYSYLAWYQQKPGQAPRLLIYDASNRATGIPARFSGSGSGTDFTLTISSLEPEDFAVYYCQQRSNWPPFTFGPGTKVDIKR
notes: also called GenTNV148.26.12; C420A
As for B1, in assay [1], the “neutralizing TNFα bioactivity (potency relative to TNV14)” value came out at 4 fold. In addition, the “fold better at blocking TNF binding to p55-sf2 (against TNV118 and TNV14)” value in assay [2] is roughly 4 fold. Further, the “IC50 (read off the curve)” value in assay [3] is roughly 4 ng/mL.

B2: TNV86 (antibody, human IgG1, V domains shown)
VH: QVQLVESGGGVVQPGRSLRLSCAASGFIFSSYAMHWVRQAPGNGLEWVAFMSYDGSNKKYADSVKGRFTISRDNPKNTLYLQMNSLRAEDTAVYYCARDRGIAAGGNYYYYGMDVWGQGTTVTVSS
VL: EIVLTQSPATLSLSPGERATLSCRASQSVYSYLAWYQQKPGQAPRLLIYDASNRATGIPARFSGSGSGTDFTLTISSLEPEDFAVYYCQQRSNWPPFTFGPGTKVDIKR
notes: also called GenTNV86.14.34; C417A
Take B2: the “fold better at blocking TNF binding to p55-sf2 (against TNV118 and TNV14)” value in assay [2] is roughly 4 fold.
